We go through nine molecules from patent US20220363781A1 (SICHUAN KELUN BIOTECH BIOPHARMACEUTICAL, published 2022).

The target in assay [1] is T1, human TSLP-His (human, UniProt Q969D9 29-159). The experiment in a line: cell-based or functional assay.
The target of assay [2] is T1, human TSLP-His. The assay can be described thus: competitive ELISA, hIL7Rα-hTSLPR-hFc coated, hTSLP-His plus titrated antibody, anti-His-HRP. In general terms: In an ELISA, binding on a coated surface is turned into a signal by an enzyme label.
Assay [3] concerns the target T1, human TSLP-His. The assay can be described thus: ELISA, human TSLP-His coated at 1 µg/mL, hybridoma supernatant, anti-rat IgG-HRP.
In assay [4] the target is T1, human TSLP-His. The experiment in a line: ELISA, human TSLP-His coated, antibody titrated, anti-rat Fc-HRP.
Assay [5] addresses T1, human TSLP-His. The experiment in a line: competitive ELISA, hIL7Rα-hTSLPR-hFc coated, hTSLP-His plus hybridoma supernatant, anti-His-HRP.
Assay [6] addresses T1, human TSLP-His. The experiment in a line: BLI (Fortebio), antibody on ProA sensor, human TSLP 1.5625-100 nM, 1:1 model. Background: In BLI a coated tip is dipped into the sample, and binding shifts an interference pattern.
Assay [7] concerns the target T1, human TSLP-His. The experiment in a line: ELISA, human TSLP-His coated, antibody titrated, anti-human Fc-HRP.
The target in assay [8] is T1, human TSLP-His. The experiment in a line: cell-based or functional assay. This is another data set of the same source.
In assay [9] the target is T2, monkey TSLP-His (cynomolgus monkey, Macaca fascicularis) (cynomolgus monkey (Macaca fascicularis), UniProt A0A7N9CAT7 29-159).
T2 construct: Whole entry XP_005557555.1 is named; also called cTSLP
T2 sequence: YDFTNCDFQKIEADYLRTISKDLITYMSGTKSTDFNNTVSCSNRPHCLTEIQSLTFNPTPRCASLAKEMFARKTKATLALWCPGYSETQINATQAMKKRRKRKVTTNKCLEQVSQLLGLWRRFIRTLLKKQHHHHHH
The experiment in a line: ELISA, monkey TSLP-His coated, antibody titrated, anti-human Fc-HRP.

For assay [10], the target named is T2, monkey TSLP-His (cynomolgus monkey, …). The experiment in a line: ELISA, monkey TSLP-His coated at 1 µg/mL, hybridoma supernatant, anti-rat IgG-HRP.
For assay [11] the target is unchanged. The experiment in a line: ELISA, monkey TSLP-His coated, antibody titrated, anti-rat Fc-HRP.
Assay [12] shares this target. The assay can be described thus: BLI (Fortebio), antibody on ProA sensor, monkey TSLP 1.5625-100 nM, 1:1 model.
The target of assay [13] is T1, human TSLP-His. The assay can be described thus: cell-based or functional assay. The source holds these as a separate data set.

B1: chimeric antibody 25A5C5 (antibody, V domains shown)
VH: EVQLVESGGGLVQPGGSLRLSCAASRFTFSRYWMNWVRQAPGKGLEWVANIKQDGNEKYYVDSVKGRFTISRDNAKNSLYLQMNSLRAEDTAVYYCARDRVVGAPDTFDIWGQGTMVTVSS
VL: not shown
notes: From hybridoma of H2L2 mice: fully human variable regions with rat constant region (rat Fc)
Broadly, the IC50 is the point on the concentration scale where inhibition reaches its midpoint. Broadly, the EC50 is the midpoint of the concentration-response curve. Regarding B1, the “EC50, blocking human TSLP-induced proliferation of Ba/F3-hTSLPR-hIL7Rα cells (CCK8)” value (shortened to “EC50 … (CCK8)”) in the assay with human TSLP-His [1] is 110 pM. Further, the IC50 with human TSLP-His [2] was determined as 890 pM. Besides, the “hTSLP binding (OD450)” value with human TSLP-His [3] came out at 2.4 OD450. For the same molecule, a half-maximal effect with human TSLP-His [4] (EC50) was put at 208 pM. The “hTSLP/hIL7Rα-hTSLPR-hFc inhibition rate (%)” value in the assay with human TSLP-His [5] came out at 95.9%.

B2: recombinant fully human antibody 25A5C5-hIgG (antibody, V domains shown)
VH: EVQLVESGGGLVQPGGSLRLSCAASRFTFSRYWMNWVRQAPGKGLEWVANIKQDGNEKYYVDSVKGRFTISRDNAKNSLYLQMNSLRAEDTAVYYCARDRVVGAPDTFDIWGQGTMVTVSS
VL: not shown
Usually Kd stands for the constant that tells how readily two partners part at equilibrium. As for B2, the Kd in the assay with human TSLP-His [6] was found to be 558 pM. Also, the response in the assay with human TSLP-His [7] was half-maximal at 1450 pM (EC50). Also, the “hTSLP EC50, inhibition of the proliferation of Ba/F3-hTSLPR-hIL7Rα cells” value (“hTSLP EC50, inhibition” for short) in the assay with human TSLP-His [8] turned out to be 44 pM. The binding result in assay [9] is listed as “no binding”.

B3: chimeric antibody 43B1A8 (antibody, V domains shown)
VH: QMQLVESGGGAVQPGRSLRLSCAASGFTFRSYDMHWVRQAPGKGLEWVAVIWYDGSNENYADSVKGRFTTSRDNSKNTLFLQMNSLRAEDTAVYYCARSPLWYGEPDDAFDIWGQGTLVTVSS
VL: EIVMTQSPATLSVSPGERATLSCRASQSVSSNLAWYQQKPGQAPRLLISGASTRATGIPARFSGSGSGTDFTLTISSLRSEDFAVYYCQHYNNWPLTFGGGTKVEIK
notes: Fully human variable regions with rat constant region (rat Fc)
On to B3, for which, in the assay with human TSLP-His [1], the “EC50 … (CCK8)” value worked out at 100 pM. In addition, the IC50 in the assay with human TSLP-His [2] stood at 1330 pM. Also, the “cTSLP binding (OD450)” value in [10] stood at 1.11 OD450. Besides, the “hTSLP binding (OD450)” value with human TSLP-His [3] came out at 1.92 OD450. Besides, the values for the EC50 (in the assay with human TSLP-His [4]; in assay [11]) were 115 pM and 568 pM, respectively. For the same molecule, the “hTSLP/hIL7Rα-hTSLPR-hFc inhibition rate (%)” value with human TSLP-His [5] is 80.7%.

B4: chimeric antibody 37C2D10 (antibody, V domains shown)
VH: QVQLQESGPGLVKPSGTLSLTCAVSGDSISSDNWWNWVRQPPGKGLQWIGEIFHSGRTNYNPSLKSRVTISVDMSKNQFSLKLSSVTAADTAVYFCARDAPNDYGDYGFFDYWGQGILVTVSS
VL: DIVMTQSPLSLPVTPGEPASISCRSSQSLLHSNEYNYLDWYLQKPGQSPQLLIYLGSDRASGVPDRFSGSGSGTDFTLKISRVEAEDVGIYYCMQALQTPYTFGQGTKLEIK
notes: as for B3
With B4, in the assay with human TSLP-His [1], the “EC50 … (CCK8)” value was 280 pM. Further, in the assay with human TSLP-His [2], the IC50 was 510 pM. Besides, the “cTSLP binding (OD450)” value in assay [10] is 1.12 OD450. Moreover, the “hTSLP binding (OD450)” value with human TSLP-His [3] turned out to be 1.1 OD450. The EC50 in the assay with human TSLP-His [4] amounted to 300 pM; in assay [11] it was 495 pM. The “hTSLP/hIL7Rα-hTSLPR-hFc inhibition rate (%)” value with human TSLP-His [5] came out at 81%.

B5: recombinant fully human antibody 37C2D10-hIgG (antibody, V domains shown)
VH: QVQLQESGPGLVKPSGTLSLTCAVSGDSISSDNWWNWVRQPPGKGLQWIGEIFHSGRTNYNPSLKSRVTISVDMSKNQFSLKLSSVTAADTAVYFCARDAPNDYGDYGFFDYWGQGILVTVSS
VL: DIVMTQSPLSLPVTPGEPASISCRSSQSLLHSNEYNYLDWYLQKPGQSPQLLIYLGSDRASGVPDRFSGSGSGTDFTLKISRVEAEDVGIYYCMQALQTPYTFGQGTKLEIKR
Turning to B5, the values for the Kd (in the assay with human TSLP-His [6]; in assay [12]) were 1760 pM and 20100 pM, respectively. The EC50 with human TSLP-His [7] stood at 900 pM; in assay [9], 170 pM. Also, the “hTSLP EC50, inhibition” value with human TSLP-His [8] was found to be 60 pM.

B6: chimeric antibody 27C2B6 (antibody, V domains shown)
VH: QVQLQESGPGLVKPSGTLSLTCAVSGDSISNYNWWSWVRQPPGKGLEWIGEIYHSGRTNYNPSLKSRVTLSVDTSKNQFSLRLSSVTAADTAVYYCARDAPSDYGDYGFFDHWGQGTLVIVSS
VL: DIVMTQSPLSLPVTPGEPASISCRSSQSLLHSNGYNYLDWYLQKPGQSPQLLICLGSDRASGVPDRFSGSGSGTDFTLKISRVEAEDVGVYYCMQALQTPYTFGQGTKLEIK
notes: as for B3
Take B6: in the assay with human TSLP-His [1], the “EC50 … (CCK8)” value came out at 1220 pM. In the assay with human TSLP-His [2], the IC50 was 770 pM. Further, the “cTSLP binding (OD450)” value in assay [10] stood at 1.11 OD450. Further, in the assay with human TSLP-His [3], the “hTSLP binding (OD450)” value is 1.4 OD450. The figures for the EC50 (with human TSLP-His [4]; in assay [11]) were 221 pM and 216 pM, respectively. The “hTSLP/hIL7Rα-hTSLPR-hFc inhibition rate (%)” value with human TSLP-His [5] was 69.8%.

B7: recombinant fully human antibody 27C2B6-hIgG (antibody, V domains shown)
VH: QVQLQESGPGLVKPSGTLSLTCAVSGDSISNYNWWSWVRQPPGKGLEWIGEIYHSGRTNYNPSLKSRVTLSVDTSKNQFSLRLSSVTAADTAVYYCARDAPSDYGDYGFFDHWGQGTLVIVSS
VL: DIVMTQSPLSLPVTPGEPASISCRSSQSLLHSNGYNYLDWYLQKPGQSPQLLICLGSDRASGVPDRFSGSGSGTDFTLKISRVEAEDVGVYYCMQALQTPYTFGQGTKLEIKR
Take B7: the values for the EC50 (in the assay with human TSLP-His [7]; in assay [9]) were 1620 pM and 180 pM, respectively. In addition, in the assay with human TSLP-His [8], the “hTSLP EC50, inhibition” value worked out at 64 pM.

B8: recombinant fully human antibody 90H3H11-hIgG (antibody, V domains shown)
VH: QVQLVESGGGVVQPGRSLRLSCAASGFTISNHDIHWVRQAPGKGLEWVTLIWYDGSNQYYADSVKGRFTISRDNSKNTVYLQMNSLRAEDTAVYYCARDDYADYVYFHHWGQGTLVTVSS
VL: DIQMTQSPSSLSASVGDRVTITCRASQNINSYLNWYRQKPGKAPELLIYAASSLQSGVPSRFSGSGSGTDFTLTISSLQPEDFATYYCQQSYSTPYTFGQGTELEIKR
Consider B8, for which the Kd in the assay with human TSLP-His [6] worked out at 604 pM. This molecule came in with an EC50 with human TSLP-His [7] of 1360 pM. Besides, the “EC50, inhibition of human TSLP-induced PBMC secretion of TARC” value in the assay with human TSLP-His [13] is 420 pM. Moreover, in the assay with human TSLP-His [8], the “hTSLP EC50, inhibition” value was 50 pM.

B9: chimeric antibody 90H3H11 (antibody, V domains shown)
VH: QVQLVESGGGVVQPGRSLRLSCAASGFTISNHDIHWVRQAPGKGLEWVTLIWYDGSNQYYADSVKGRFTISRDNSKNTVYLQMNSLRAEDTAVYYCARDDYADYVYFHHWGQGTLVTVSS
VL: DIQMTQSPSSLSASVGDRVTITCRASQNINSYLNWYRQKPGKAPELLIYAASSLQSGVPSRFSGSGSGTDFTLTISSLQPEDFATYYCQQSYSTPYTFGQGTELEIK
notes: as for B3
Consider B9, for which, in the assay with human TSLP-His [1], the “EC50 … (CCK8)” value amounted to 250 pM. Besides, the IC50 with human TSLP-His [2] is 1650 pM. Besides, in the assay with human TSLP-His [3], the “hTSLP binding (OD450)” value is 0.7 OD450. Further, the midpoint of the response in the assay with human TSLP-His [4], the EC50, lay at 139 pM. In addition, the “hTSLP/hIL7Rα-hTSLPR-hFc inhibition rate (%)” value with human TSLP-His [5] is 87%.
